Tests used:
[1] = molecular target: T1, Recombinant Human FGFR1 alpha (IIIc) Fc Chimera Protein (Homo sapiens, UniProt P11362); experiment: SPR binding affinity of chemically synthesized cyclic peptide to immobilized FGFR; settings: SPR binding amount at 10 nmol/L cyclic peptide, 25° C.; chemically synthesized product
T1 construct: purchased R&D systems 658-FR-050
Experimental: The binding affinity of the cyclic peptide to FGFR was evaluated using a surface plasmon resonance (SPR) method.
The binding affinity of the chemically synthesized cyclic peptide to FGFR was evaluated by the following procedure.
A CM5 sensor chip (Cytiva, 29149603) was set in Biacore-T200 (manufactured by Cytiva) which is a surface plasmon resonance device, and an HBS-EP buffer (Cytiva, BR100826) was added as a running buffer at a flow rate of 10 μL/min to equilibrate the flow channel. Next, 70 μL of a mixed aqueous solution of 0.2 mol/L 1-(3-dimethylaminopropyl)-3-ethylcarbodiimide (EDC) and 0.05 mol/L N-hydroxysuccinimide (NHS) was added to activate the sensor chip. Then, Recombinant Human FGFR1 alpha (IIIc) Fc Chimera Protein CF (R&D systems, 658-FR-050) prepared at 50 nmol/L in an Acetate 4.5 buffer (Cytiva, BR100350) was added thereto to perform immobilization at about 5000 RU. Thereafter, the blocking treatment was performed with an ethanolamine solution. In addition, in another flow channel of the same sensor chip, blocking treatment was performed immediately after activation without immobilizing FGFR.
A cyclic peptide diluted to 10 nmol/L using HBS-EP was added to each flow channel of the FGFR-immobilized sensor chip produced above at 25° C. for 10 minutes, then HBS-EP was allowed to flow as a running buffer for 30 minutes, and the binding of the cyclic peptide to FGFR was measured. Thereafter, a regeneration treatment of removing the bound cyclic peptide was performed by repeating the flow of a regeneration liquid in which sodium chloride powder was dissolved in Glysine 1.5 (Cytiva, BR100354) to a final concentration of 0.15 mol/L for 1 minute in each flow channel twice. The binding amount of the cyclic peptide was evaluated from the difference between the measured value of Biacore-T200 in the flow channel in which FGFR was immobilized and the measured value of Biacore-T200 in the flow channel in which FGFR was not immobilised, in a case where a 10 nmol/L cyclic peptide was allowed to flow.
The binding amount of the cyclic peptide evaluated above was normalized to the binding amount of the cyclic peptide molecules per one molecule of FGFR using the molecular weights of the cyclic peptide and FGFR, and the binding affinity to FGFR was evaluated according to the following evaluation criteria. The evaluation result preferably satisfies the evaluation criteria A, B, or C.
• A: The binding amount is 0.7 molecules of the cyclic peptide/one molecule of FGFR or more. • B: The binding amount is 0.5 molecules of the cyclic peptide/one molecule of FGFR or more and less than 0.7 molecules of cyclic peptide/one molecule of FGFR. • C: The binding amount is 0.1 molecules of cyclic peptide/one molecule of FGFR or more and less than 0.5 molecules of cyclic peptide/one molecule of FGFR. • D: The binding amount is less than 0.1 molecules of the cyclic peptide/one molecule of FGFR.

[2] = Reductive stability of cyclic peptide (DTT treatment, LC); format: physicochemical; settings: residual rate after DTT treatment, room temperature, 1 hour
Experimental: The molecular stability of the cyclic peptide was evaluated by analyzing an aqueous solution of the cyclic peptide treated with a reducing agent by liquid chromatography (LC).
The reducing agent treatment was performed under the following conditions based on the concentration of glutathione contained in the cells. 25 μL of a 0.2 mg/mL cyclic peptide aqueous solution was prepared, 58.8 μL of a 12.6 mmol/L DTT aqueous solution was added to the aqueous solution, and the mixture was incubated at room temperature for 1 hour to obtain an aqueous solution of the cyclic peptide treated with a reducing agent. The DTT aqueous solution was used by diluting a 1 mol/L (+−)-dithiothreitol (DTT) solution (FUJIFILM Wako Pure Chemical Corporation, 044-33871) with water. The total area of all the peaks in LC/MS of the cyclic peptide before the reducing agent treatment was set to 100%, and the proportion of the total area of all the peaks in LC/MS of the aqueous solution of the cyclic peptide treated with the reducing agent was determined to calculate the residual rate of the cyclic peptide, and the molecular stability was evaluated according to the following evaluation criteria. The evaluation result preferably satisfies the evaluation criteria A, B, or C.
• A: The residual rate of cyclic peptide is 90% or more. • B: The residual rate of the cyclic peptide is 70% or more and less than 90% • C: The residual rate of the cyclic peptide is 50% or more and less than 70% • D: The residual rate of the cyclic peptide is less than 50%
The LC used for the evaluation of molecular stability was set to the following conditions. • LC device: Prominence series (pump, column oven, autosampler, detector) (manufactured by Shimadzu Corporation) • Detector: photodiode array detector (SPD-M20A), measurement wavelength of 280 nm • Column: TSKgel ODS-100V, inner diameter of 4.6 mm×length of 150 mm, particle diameter of 5 μm (manufactured by Tosoh Corporation) • Eluent A: solution containing 0.1% trifluoroacetic acid as solute, and solvent is 100% water • Eluent B: solution containing 0.1% trifluoroacetic acid as solute, and solvent is 100% acetonitrile • Flow rate: 1.0 mL/min • Injection amount: 25 μL • Gradient: 20% to 50%: Eluent B (0 to 15 minutes), 100%: Eluent B (15 minutes) • Column temperature: 40° C.

T1 sequence (P11362 with tags, fused parts or gaps limits assumed): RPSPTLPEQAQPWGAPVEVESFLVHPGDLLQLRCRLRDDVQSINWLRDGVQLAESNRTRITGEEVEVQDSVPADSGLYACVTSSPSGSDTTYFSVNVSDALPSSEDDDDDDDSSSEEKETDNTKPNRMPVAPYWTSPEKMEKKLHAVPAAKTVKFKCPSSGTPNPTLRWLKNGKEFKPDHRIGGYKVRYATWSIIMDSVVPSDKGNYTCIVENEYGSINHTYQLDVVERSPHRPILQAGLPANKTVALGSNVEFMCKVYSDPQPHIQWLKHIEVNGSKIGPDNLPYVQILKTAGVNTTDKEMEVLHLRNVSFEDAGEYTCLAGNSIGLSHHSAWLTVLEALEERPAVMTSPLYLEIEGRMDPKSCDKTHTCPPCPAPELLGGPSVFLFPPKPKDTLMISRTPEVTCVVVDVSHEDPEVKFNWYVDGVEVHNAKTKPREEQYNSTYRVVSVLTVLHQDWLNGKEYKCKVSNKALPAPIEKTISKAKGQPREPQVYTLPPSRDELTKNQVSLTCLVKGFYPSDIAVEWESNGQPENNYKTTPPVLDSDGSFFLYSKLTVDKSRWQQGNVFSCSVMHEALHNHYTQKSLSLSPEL

Substance: 335 (ACVWTFDRHAQEISQALHKVKKK; not fully specified; Description of Artificial Sequence: Cyclic peptide) [compound 335]
- Evaluation result of binding affinity to FGFR [1]: A (The binding amount is 0.7 molecules of the cyclic peptide/one molecule of FGFR or more.)
- Evaluation result of reductive stability [2]: B (The residual rate of the cyclic peptide is 70% or more and less than 90%)

— US20260008817A1, “CYCLIC PEPTIDE OR SALT THEREOF, AND USES THEREOF” (FUJIFILM Corporation, priority 2023, published 2026)
